This data set addresses OsMADS57 (Oryza sativa, UniProt Q6Z6W2 1-241). As to the kind of experiment: EMSA; competed by unlabeled probe; LightShift Chemiluminescent EMSA Kit (Thermo); buffer, salt, pH and temperature not stated. The following applies: protein: recombinant; tags: His (pET32a(+) vector-encoded tags); chain copies: 2; label: biotin 3' end; blunt. Background: Mobility shift assays separate free from complexed probe on a gel.

Chain of OsMADS57 (Q6Z6W2 whole entry): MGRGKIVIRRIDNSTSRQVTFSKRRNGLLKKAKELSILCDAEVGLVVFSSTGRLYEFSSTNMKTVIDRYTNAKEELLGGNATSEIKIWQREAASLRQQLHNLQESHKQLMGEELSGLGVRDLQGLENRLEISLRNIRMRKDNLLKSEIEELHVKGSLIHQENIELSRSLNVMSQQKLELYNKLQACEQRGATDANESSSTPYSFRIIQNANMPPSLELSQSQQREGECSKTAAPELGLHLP

B1: OsGA2ox3 promoter CArG probe (dsDNA)
DNA 1: TAGCACGAGGGAAAACCCTTTAAAAAGACAGACAAGGCAGACG
DNA 2: CGTCTGCCTTGTCTGTCTTTTTAAAGGGTTTTCCCTCGTGCTA
Take B1: the binding result was “binds”.

B2: EUI1 promoter CArG probe (dsDNA)
DNA 1: GCCTTTCCCTTTGTTACTGTTGCATATAAAAGATCATCAATGT
DNA 2: ACATTGATGATCTTTTATATGCAACAGTAACAAAGGGAAAGGC
With B2, the binding result is recorded as “binds”.

Values taken from paper PMC6538746, “Rice transcription factor OsMADS57 regulates plant height by modulating gibberellin catabolism”.
